Assay results from article PMC8872791, “MadR mediates acyl CoA-dependent regulation of mycolic acid desaturation in mycobacteria” (Proceedings of the National Academy of Sciences of the …, 2022).

T1: MadR (Mycobacterium tuberculosis H37Rv) (UniProt P9WMD9)
T1 sequence: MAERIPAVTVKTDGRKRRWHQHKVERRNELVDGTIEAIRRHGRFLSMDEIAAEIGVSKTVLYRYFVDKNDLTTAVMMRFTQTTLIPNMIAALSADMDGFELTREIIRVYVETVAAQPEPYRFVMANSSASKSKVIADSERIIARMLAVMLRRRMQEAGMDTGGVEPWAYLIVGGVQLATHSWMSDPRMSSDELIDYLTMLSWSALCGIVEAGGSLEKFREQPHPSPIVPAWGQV

T2: MadR (Mycobacterium tuberculosis H37Rv, UniProt P9WMD9 1-234)
T2 sequence: T1 sequence

B1: desA1 promoter -19/+31 (dsDNA)
DNA 1: CAGTTATCTGTGTCTAATGGTTGCAGTCAATATATCTGTGTCTCTCGGTA
DNA 2: TACCGAGAGACACAGATATATTGACTGCAACCATTAGACACAGATAACTG
B2: desA2 promoter -36/+14 (dsDNA)
DNA 1: TTCACGAAATCTGTGTATGCGAGTTACAGTTACCGCATGGCACAGAAACC
DNA 2: GGTTTCTGTGCCATGCGGTAACTGTAACTCGCATACACAGATTTCGTGAA

Experiments:
[1] = target: T1, MadR (Mycobacterium tuberculosis H37Rv); assay: EMSA
MadR = target: T2, MadR; assay: EMSA; settings: protein: recombinant; tags: His-tag implied (pET28a, cobalt IMAC); chain copies: 2; blunt

| Molecule | binding [1] | binding result (MadR) |
| --- | --- | --- |
| GGGCCGAACATACTCACCCGGATCGGAGGGCCGAGGACACGGTCGAACGAGGGGCATGACCCGGTGCGGGGCTTCTTGCACTCGGCATAGGCGAGTGCTAAGAATAACGTTGGCACTCGCGACCGGTGAGTGCTAGGTCGGGACGGTGAGGCCAGGCCCGTCGTCGCAGCGAGTGGCAGCGAGGACAACTTGAGCCGTCCGTCGCGGGCACTGCGCCCGGCCAGCGTAAGTAGCGGGGTTGCCGTCACCCGGTGACCCCCGTTTCATCCCCGATCCGGAGGAATCACTTCGCA (double strand) [hsp60 promoter] | no binding | – |
| B1 | – | binds |
| B2 | – | binds |
